Test results from PMC11440508, “Dually Labeled Neurotensin NTS1R Ligands for Probing Radiochemical and Fluorescence-Based Binding Assays” (Journal of Medicinal Chemistry, 2024).
“And” between values parts separate entries of the source, which are not always exact repeats. Identical values can stand only once. Like-named read-outs stand apart in the source and are kept apart here. Blank lines part the entries; values can stand above or below the substance they belong to.

Tests used:
[1] = target: NTS1R (Homo sapiens) (UniProt P30989); assay: radioligand competition binding; conditions: cited from earlier work
NTS1R (Homo sapiens), sequence (P30989 whole entry): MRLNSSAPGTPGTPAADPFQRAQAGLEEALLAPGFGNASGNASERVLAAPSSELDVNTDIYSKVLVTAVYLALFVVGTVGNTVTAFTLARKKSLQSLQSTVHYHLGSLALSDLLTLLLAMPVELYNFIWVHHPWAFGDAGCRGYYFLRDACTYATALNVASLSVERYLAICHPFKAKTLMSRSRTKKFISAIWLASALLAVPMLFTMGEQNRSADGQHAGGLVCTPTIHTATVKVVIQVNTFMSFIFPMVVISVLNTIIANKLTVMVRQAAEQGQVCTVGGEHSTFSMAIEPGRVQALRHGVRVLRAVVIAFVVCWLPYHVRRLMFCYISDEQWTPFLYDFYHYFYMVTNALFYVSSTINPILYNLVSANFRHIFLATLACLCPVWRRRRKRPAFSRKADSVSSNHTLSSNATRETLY

[2] = target: NTS1R (Homo sapiens) (UniProt P30989); conditions: cited from earlier work
[3] = target: neurotensin NT(8-13) 8-13 (Homo sapiens) (UniProt P30990); assay: radioligand competition binding; conditions: cited from earlier work
neurotensin NT(8-13) 8-13 (Homo sapiens), sequence (P30990 whole entry, looked up, tested part not stated): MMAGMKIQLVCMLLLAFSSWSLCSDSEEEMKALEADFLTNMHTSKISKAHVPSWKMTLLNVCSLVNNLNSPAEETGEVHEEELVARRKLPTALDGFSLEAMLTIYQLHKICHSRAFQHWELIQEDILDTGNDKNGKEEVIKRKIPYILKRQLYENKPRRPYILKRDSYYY

[4] = target: neurotensin NT(8-13) 8-13 (Homo sapiens) (UniProt P30990); conditions: cited from earlier work
[5] = target: human neurotensin receptor type 2 (hNTS2R) in homogenates of HEK293T cells (human) (UniProt O95665); assay: radioligand binding; saturation binding of [^3H]UR-MK300 at homogenates of HEK293T-hNTS2R cells
human neurotensin receptor type 2 (hNTS2R) in homogenates of HEK293T cells (human), sequence (O95665 whole entry): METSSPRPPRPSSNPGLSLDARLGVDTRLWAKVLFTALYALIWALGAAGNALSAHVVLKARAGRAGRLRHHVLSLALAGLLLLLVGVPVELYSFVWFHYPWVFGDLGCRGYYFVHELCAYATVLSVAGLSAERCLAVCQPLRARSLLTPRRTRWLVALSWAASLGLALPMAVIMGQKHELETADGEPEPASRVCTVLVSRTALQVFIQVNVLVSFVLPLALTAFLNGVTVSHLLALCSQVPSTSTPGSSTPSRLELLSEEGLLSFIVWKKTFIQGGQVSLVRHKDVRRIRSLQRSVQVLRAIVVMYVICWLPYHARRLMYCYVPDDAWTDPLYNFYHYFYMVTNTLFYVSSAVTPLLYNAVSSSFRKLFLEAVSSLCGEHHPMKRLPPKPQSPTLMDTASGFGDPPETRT

[6] = target: human neurotensin receptor type 1 (hNTS1R), endogenous in HT-29 colon carcinoma cells (human (endogenous in HT-29)) (UniProt P30989); assay: radioligand binding; saturation binding of [^3H]UR-MK300 at intact HT-29 cells, 23 ± 1 °C
human neurotensin receptor type 1 (hNTS1R), endogenous in HT-29 colon carcinoma cells (human (endogenous in HT-29)), sequence (P30989 whole entry): as the sequence (P30989 whole entry) above

NT(8–13) 8-13, sequence (P30990 whole entry, looked up, tested part not stated): as the sequence (P30990 whole entry, looked up, tested part not stated) above
NTS1R, sequence (P30989 whole entry): as the sequence (P30989 whole entry) above

Substance: NT(8–13) 8-13 (from UniProt P30990)
- Ki [1]: 0.14 nM
- Ki [2]: 1 nM and 0.24 nM

Substance: NTS1R (from UniProt P30989)
- Ki [3]: 0.14 nM
- Ki [4]: 1 nM and 0.24 nM and 0.29 nM

- Kd [5]: 0.75 nM
- Kd [6]: 0.41 nM
Substance: [^3H]UR-MK300 (peptide)
